Source: the DeepSol protein solubility set

Experiment: soluble on expression in E. coli; label from the status in PepcDB or PDB records
In the case of “MAHHHHHHMAWCDASFSVIYGNEELVVVNKPHDVPMDGEACPVTVEKWAWAYLAKGGCADNNAGGGVEKEDDTTRTAGRRRGEKKMVKFVHQLDYATSGVLCVAFSREMAARLAHCFEMRTTRKAYLAVLFGMMPTTSAMQKKLDTDTGVDFLRGSPYASHVRRVSMDDVPGVCFIRKCVIEASGHEEGENADCCATLLEVNLPVGYDTTDHEGFRMTVNGRDARGSVTYLSVLQRGYMTHPTSGCPVPVTKVALFPRTGRRHQLRVHCHAIGFPILGDVTYARIPTPRVAPKVTGAEEVATVGATESINAPNEIGAIEAWQRMMLHAWRLSFPVSVEPLRSGSERYMQKKKRRRETLGLAVAGGDDTTVWTHFETEDPFQLVRPE”, the “soluble on expression in E. coli” value is reported as “not soluble”. With “AGKPDWDWQPAPKNEALIAAVSAAAQEGLNAAYQIREKQARTTKLREVYAAVQAAMAEQAAQAGQPAPDSVGVDNILFDLEARIVRSQILNGEPRIDGRDTRTVRP” the “soluble on expression in E. coli” value was “not soluble”. For “MAEICLITGTPGSGKTLKMVSMMANDEMFKPDENGIRRKVFTNIKGLKIPHTYIETDAKKLPKSTDEQLSAHDMYEWIKKPENIGSIVIVDEAQDVWPARSAGSKIPENVQWLNTHRHQGIDIFVLTQGPKLLDQNLRTLVRKHYHIASNKMGMRTLLEWKICADDPVKMASSAFSSIYTLDKKVYDLYESAEVHT”, the “soluble on expression in E. coli” value was “soluble”. For “MAEIFRIPEEKFRDKVHKSLEENVTWVERETGRLPSYEEVEEFLVEEFSKVIPFEGEEPVPEEAIELADKLKEEFTSEEVLLEDTGRKHRAIKLREGVYLRTAVHKAQGGLIRTEVYTDGEVIERVKIYGDFTLYPKESLKELEEKLKGIKFEPEEIKKVAHEFLQKVDMPGVSAEDLVIAIYG”, the “soluble on expression in E. coli” value was “soluble”. For “GPGSMPSLNFFLADESRLESSRDDSTAEVAHFTPSQHALRRILISTAMANKSLEYVQGMNEYVAHLLYAFAKGKASNLTASVEADTFFCFQTLLSYLGDDFCRSFDFDAACGLTSTMRLFDNVLRFFDPSLFQHLEYLGINAEHYALRWIMLLFTQEFNIADGLRVWDFLLSFGDEIRNAAFFVAAAMCHHLRSSILSGEAMSDVLPLLQEYPAGDVNLFLRIALKWIVKFDFDLLHELKPLSPEGVQALRCSRGLEGGMNFVQVMQSWVPSIF”, the “soluble on expression in E. coli” value was “not soluble”. With “MKAMRYEQISENAFKGKIQVYLEQILGDASLILKTLHEKDQCLLCELDDLGHVFQDMQGIASSFYLQSYIEEFTPAFIELAKAIKALSEHKHGALIVIERADPVERFIQKGTSLHAEISSSLIESIFFPGNPLHDGALLVRENKLVSASNVLPLTTKEVDIHLGTRHLAALGMSGYTDALVLVVSEETGKMSFAKDGVLYPLISPRT” the “soluble on expression in E. coli” value was “not soluble”. In the case of “MGSDKIHHHHHHMNSSQKRVLHVLSGMNRGGAETMVMNLYRKMDKSKVQFDFLTYRNDPCAYDEEILSLGGRLFYVPSIGQSNPLTFVRNVRNAIKENGPFSAVHAHTDFQTGFIALAARLAGVPVRVCHSHNTSWKTGFNWKDRLQLLVFRRLILANATALCACGEDAGRFLFGQSNMERERVHLLPNGIDLELFAPNGQAADEEKAARGIAADRLIIGHVARFHEVKNHAFLLKLAAHLKERGIRFQLVLAGDGPLCGEIEEEARQQNLLSDVLFLGTEERIHELMRTFDVFVMPSLYEGLPVVLVEAQASGLPCIISDSITEKVDAGLGLVTRLSLSEPISVWAETIARAAAAGRPKREFIKETLAQLGYDAQQNVGALLNVYNISTEKDHNR”, the “soluble on expression in E. coli” value is reported as “not soluble”. In the case of “MGSDKIHHHHHHMQQNTNVDPQEIAKFERMAETWWDLNGEFKPLHLLNPLRLNYIDQTAGGIFGKKVLDVGCGGGILSESMARIGAIVDGLDMGEEPLEVARLHALETGVSINYVKNTAEAHREDHREYYDVVTCMEMLEHVPDPQSVIQACCDMVKPGGFVFFSTINRNVRSFVETIIGAEYLLKMLPIGTHDHNKFIKPSELIDLVDNTELICKDALGITYNPLTGIFKYTSKVDVNYMIATQKVD”, the “soluble on expression in E. coli” value is reported as “not soluble”. With “GSMETSMPEYYEVFGEFRGVLMDKRFTKYWEDVEMFLARPDDLVIATYPKSGTTWISEVVYMIYKEGDVEKCKEDAIFNRIPYLECRNEDLINGIKQLKEKESPRIVKTHLPPKLLPASFWEKNCKMIYLCRNAKDVAVSYYYFLLMITSYPNPKSFSEFVEKFMQGQVPYGSWYDHVKAWWEKSKNSRVLFMFYEDMKEDIRREVVKLIEFLERKPSAELVDRIIQHTSFQEMKNNPSTNYTMMPEEMMNQKVSPFMRKGIIGDWKNHFPEALRERFDEHYKQQMKDCTVKFRMEL” the “soluble on expression in E. coli” value was “soluble”. In the case of “MQPLVSVLICAYNVEKYFAQSLAAVVNQTWRNLDILIVDDGSTDGTPAIARRFQEQDGRIRIISNPRNLGFIASLNIGLDELAKSGGGGEYIARTDADDIASPGWIEKIVGEMEKDRSIIAMGAWLEVLSEENNKSVLAAIARNGAIWDKPTRHEDIVAVFPFGNPIHNNTMIMRRSVIDGGLRFDPAYIHAEDYKFWYEAGKLGRLAYYPEALVKYRFHQDQTSSKYNLQQRRTAWKIKEEIRAGYWKAAGIAVGADCLNYGLLKSTAYALYEKALSGQDIGCLRLFLYEYFLSLEKYSLTDLLDFLTDRVMRKLFAAPQYRKILKKMLRPWKYRSYLEHHHHHH”, the “soluble on expression in E. coli” value is reported as “not soluble”. In the case of “MSLKGRPIKEFSLVMDLSQAKKGADKMGYMEDLRKRVGTRPLILPASVVIILNEQDEILLQKRLDGRWGLPGGLMELGESFEETAKREILEETGLTIKNVTFLDVFSGKDLYVKVENGDEFYAVTALFMTREVAGGIQMDPRESLDLQYIALDQFPPNVTRTSKIFLDRFMELKEGHHHHHH”, the “soluble on expression in E. coli” value is reported as “soluble”. In the case of “MRVRGIYATALVALALKKGYLLSDLSKTMLSRVEVPVSTRPPNITVKHGEESRDEIVIHAFPYEAGERFEADLLEEVGHAAVRRSLLGLRSVVDARAAEGCRAEGPGGVLIIVKGGECPQPGSMVRVTVVRSPPGSDVVEGRVGVELTGLTVRVMHPGSGVRISRHLTSEDAAKALKAVEASGIDLNQFSVHIRSGARLASEGDISDEIRRLAREAERLWREGPGGEPAVLSRGEYLSLVYLPSTAKHVMDGLRTSLYPTVNNHHSLKSWSSEAEGLLTDFAEEGVREGLWGGEAGDLIVRFISSRLVGRTAVVLHRRPDGETIRLGPFRVSSYRPSSGRGGEIVLERTFRSPGVYDGLGLERRPGDRGVTHVYMGDWLTIHEYYDKSGRLLGVYANINTPPEVGFQGLKYLDLLVDVVKRPGEEPETIDQGELEKACRSGLLTDRLCEEAARQAERASGLLQSRYP”, the “soluble on expression in E. coli” value is reported as “not soluble”. In the case of “MVVRSLLRVSRLTSASCRHASLAVSSTPKPYIPSVTGVQKSMPFDNLLEQYSRVHWDDSVTYDDPNVQKLFKSLMSGSRAALASAITLVESRHPTKRAQGNMLLKMVLDEEREKYKKFGRDSMIFRVGISGSPGVGKSSFIEALGAELTENRGKKVAVLTIDPTSAMTGGSVLGDLTRMQELSRNPKAYIRQSPTSGSLGGVTRGIHEAVILCEGAGYDIVIIETVGVGQSETSVSDMCDMMCLLLSPAHGDELQGVKRGIMEMSDLLVVTKDDGDLKAKAKMTQAEYISALKFMRPRLDVWRPKVMRSSIMDKESVSEVCSSLYEFWDTIGESGDLERRRQDQMKKWMWNHVKDEIMSVFQKHPKIAHLAPKLENEIRSGKITPGLAAETMIRTFFGV”, the “soluble on expression in E. coli” value is reported as “not soluble”. With “KPMKILLANPRGFCAGVDRAISIVERALELYQPPIYVRHEVVHNRFVVEGLKQRGARFVEELNEVPDDNIVIFSAHGVSQAVRQEAKERSLTVFDATCPLVTKVHMEVARASRKHMEVVLIGHAGHPEVEGTMGQYASDTGGMYLVEKPEDVVSLQAKVKDPSNLHYVSQTTLSVDETADVIDELRRVFPKIQGPRKDDICYATQNRQDAVRILAEQVDVMVVVGSKNSSNSTRLKELAEKLGTPGYLIDCPQDIDPEWFVDAQLIGVTAGASAPEELVNQILDRIKELGAT” the “soluble on expression in E. coli” value was “not soluble”. For “DIKVTPGTSELVEQILALLSRYLSSYIHVLNKFISHLRRVATLRFERTTLIKFVKKLRFYNDSVLSYNASEFINEGKNELDPEADSFDKVILPIASMFVKSVETFDLLNYYLTQSLQKEILSKTLNEDLTLTAESILAIDDTYNHFVKFSQWMIESLRIGSNLLDLEVVQFAIKSADEDGTNIGETDNIFLQEILPVNSEEEFQTLSAAWHSILDGKLSALDEEFDVVATKWHD”, the “soluble on expression in E. coli” value was “soluble”.
